By Kd is commonly meant the equilibrium constant for the complex coming apart. The low end stands for higher affinity, the high end for lower affinity.

Among the data in publication doi:10.1101/2022.06.30.497818 are Kd values, retold here.

The assay addresses GST-tagged CDK2 (human cyclin-dependent kinase 2, 1-298) (human) (UniProt P24941). Kind of assay: SPR. In general terms: In SPR one partner is held on a chip, and binding of the other changes the refractive index at the surface.

The substance “Bovine cyclin A (171-432 with a C-terminal 6His tag) (from UniProt P30274 171-430) (domain or fragment)” yielded a dissociation constant Kd of 2.8 nM.
